# T1: human Natriuretic Peptide Receptor 1 (hNPR1) (human, UniProt P16066 33-473, limits assumed)
# T1 construct: pannings used NPR1-hFc; also called NPR1-hFc
# T1 sequence: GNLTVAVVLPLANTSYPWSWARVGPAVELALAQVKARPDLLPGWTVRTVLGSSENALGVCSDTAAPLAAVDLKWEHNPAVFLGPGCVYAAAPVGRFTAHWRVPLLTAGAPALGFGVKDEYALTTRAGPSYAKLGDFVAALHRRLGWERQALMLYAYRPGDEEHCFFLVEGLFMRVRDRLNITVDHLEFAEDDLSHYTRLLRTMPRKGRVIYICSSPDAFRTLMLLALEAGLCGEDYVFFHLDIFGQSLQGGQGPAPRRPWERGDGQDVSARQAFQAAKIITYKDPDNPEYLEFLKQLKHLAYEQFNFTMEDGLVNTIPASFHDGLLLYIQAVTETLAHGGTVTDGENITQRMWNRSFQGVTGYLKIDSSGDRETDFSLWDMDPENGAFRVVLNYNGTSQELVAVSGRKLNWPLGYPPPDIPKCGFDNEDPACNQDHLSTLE
# T2: hNPR1-ANP complex (human, UniProt P01160 124-151, limits assumed)
# T2 construct: hNPR1 antigen in the presence of ANP; also called hNPR1 + 100 nM ANP
# T2 sequence: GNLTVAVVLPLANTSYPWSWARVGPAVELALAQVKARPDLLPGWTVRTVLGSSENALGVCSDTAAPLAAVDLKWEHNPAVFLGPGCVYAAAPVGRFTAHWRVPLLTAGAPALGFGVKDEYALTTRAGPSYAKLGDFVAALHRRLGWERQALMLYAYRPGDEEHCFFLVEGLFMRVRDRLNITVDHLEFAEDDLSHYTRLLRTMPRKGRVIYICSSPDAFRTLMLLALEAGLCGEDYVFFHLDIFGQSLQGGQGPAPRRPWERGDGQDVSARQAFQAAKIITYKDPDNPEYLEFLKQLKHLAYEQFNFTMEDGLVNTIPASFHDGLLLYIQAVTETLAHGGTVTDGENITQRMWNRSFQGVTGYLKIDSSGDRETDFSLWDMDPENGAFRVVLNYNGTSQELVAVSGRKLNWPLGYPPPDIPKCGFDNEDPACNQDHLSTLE
# T2 sequence (peptide): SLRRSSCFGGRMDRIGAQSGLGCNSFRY
# T3: rat NPR1 (rNPR1) (rat, UniProt P18910 29-469, limits assumed)
# T3 construct: Soluble antigen
# T3 sequence: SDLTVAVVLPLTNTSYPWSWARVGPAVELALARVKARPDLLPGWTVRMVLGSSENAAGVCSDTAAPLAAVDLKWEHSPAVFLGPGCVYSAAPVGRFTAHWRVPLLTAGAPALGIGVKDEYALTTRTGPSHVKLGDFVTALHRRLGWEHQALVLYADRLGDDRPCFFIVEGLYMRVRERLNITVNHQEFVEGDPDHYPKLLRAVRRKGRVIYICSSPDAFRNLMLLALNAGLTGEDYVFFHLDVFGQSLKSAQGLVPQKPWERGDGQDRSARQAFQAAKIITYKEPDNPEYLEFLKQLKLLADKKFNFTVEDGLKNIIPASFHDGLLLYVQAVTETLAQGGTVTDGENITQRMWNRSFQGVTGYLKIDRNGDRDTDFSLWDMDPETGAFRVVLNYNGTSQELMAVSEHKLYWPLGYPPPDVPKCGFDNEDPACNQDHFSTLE
# T4: rNPR1-ANP complex (rat, UniProt P01160 124-151 (human entry), limits assumed)
# T4 construct: rNPR1 antigen in the presence of ANP; also called rNPR1 + 100 nM ANP
# T4 sequence: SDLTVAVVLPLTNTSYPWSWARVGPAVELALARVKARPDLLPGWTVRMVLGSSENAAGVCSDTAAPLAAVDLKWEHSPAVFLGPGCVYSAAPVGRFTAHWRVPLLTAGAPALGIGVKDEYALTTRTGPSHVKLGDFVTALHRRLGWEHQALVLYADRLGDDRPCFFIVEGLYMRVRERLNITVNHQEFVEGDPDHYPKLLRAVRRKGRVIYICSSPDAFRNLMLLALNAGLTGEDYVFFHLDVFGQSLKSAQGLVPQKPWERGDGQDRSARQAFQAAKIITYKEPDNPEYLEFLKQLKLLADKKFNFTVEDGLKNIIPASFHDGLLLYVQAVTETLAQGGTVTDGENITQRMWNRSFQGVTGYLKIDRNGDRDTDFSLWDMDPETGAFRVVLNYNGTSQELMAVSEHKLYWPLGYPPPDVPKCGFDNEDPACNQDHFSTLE
# T4 sequence (peptide): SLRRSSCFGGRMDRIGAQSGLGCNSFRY
# How the values were obtained:
# [1] = target: T1, human Natriuretic Peptide Receptor 1 …; test: Octet, FabCys
# hNPR1-ANP complex [2] = target: T2, hNPR1-ANP complex; test: Octet, FabCys
# [3] = target: T1, human Natriuretic Peptide Receptor 1 …; test: SET, FabCys
# hNPR1-ANP complex [4] = target: T2, hNPR1-ANP complex; test: SET, FabCys
# rat NPR1 (rNPR1) = target: T3, rat NPR1 (rNPR1); test: SET, FabCys
# rNPR1-ANP complex = target: T4, rNPR1-ANP complex; test: SET, FabCys
Kd [1],Kd (hNPR1-ANP complex [2]),Kd [3],Kd (hNPR1-ANP complex [4]),Kd (rat NPR1 (rNPR1)),Kd (rNPR1-ANP complex),Binder
0.26 nM,0.19 nM,0.053 nM,0.074 nM,,,"ZZ15 (FabCys format) (Fab, V domains shown, Monovalent FabCys) VH: EVQLLESGGGLVQPGGSLRLSCAASGFTFASYAITWVRQAPGKGLEWVSTISGSGVYTYYAESVKGRFTISRDNSKNTLYLQMNSLRAEDTAVYYCARPYLGDRRSYGFDHWGQGTLVTVSS VL: QSALTQPASVSGSPGQSITISCTGTSSDVGSYNLVSWYQQHPGKAPKLMIYEGSKRPSGVSNRFSGSKSGNTASLTISGLQAEDEADYYCSSYGFHIVVVVFGGGTKLTVL"
0.14 nM,0.11 nM,0.04 nM,0.034 nM,62 nM,51 nM,"ZZ16 (FabCys format) (Fab, V domains shown, Monovalent FabCys) VH: EVQLLESGGGLVQPGGSLRLSCAASGFTFGTYAMTWVRQAPGKGLEWVSSISASGYYANYAGSVKGRFTISRDNSKNTLYLQMNSLRAEDTAVYYCARPYLGDRRSYGFDHWGQGTLVTVSS VL: QSALTQPASVSGSPGQSITISCTGTSSDVGSYNLVSWYQQHPGKAPKLMIYEGSKRPSGVSNRFSGSKSGNTASLTISGLQAEDEADYYCSSYGFHIVVVVFGGGTKLTVL"

# From patent US20240052042A1 (Novartis, published 2024)
